The series has as its target IGFBP3 (insulin-like growth factor-binding protein 3) (UniProt P17936 28-291). Description: SPR.

Our source for the Kd values is doi:10.1101/2024.12.30.630826.

Chain of IGFBP3 (insulin-like growth factor-binding protein 3) (P17936 28-291): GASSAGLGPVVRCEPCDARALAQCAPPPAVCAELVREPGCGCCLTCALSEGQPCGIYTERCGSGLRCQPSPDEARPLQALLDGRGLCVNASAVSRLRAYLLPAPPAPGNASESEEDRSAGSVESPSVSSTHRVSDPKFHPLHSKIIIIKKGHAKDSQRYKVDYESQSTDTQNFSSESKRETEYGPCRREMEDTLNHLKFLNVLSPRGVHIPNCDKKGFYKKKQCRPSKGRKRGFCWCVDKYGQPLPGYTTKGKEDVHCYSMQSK

B1: RGen-aptamer-9 (structured_RNA)
RNA: UCCAGCACUCCACGCAUAACGAAGGGGGUUUGUUUGUUGGGGGGGGGGGAGGGGGAGUUAUGCGUGCUACCGUGAA
For B1, the Kd is 6.06 nM.

B2: SELEX-derived wild-type aptamer (structured_RNA)
RNA: UCCAGCACUCCACGCAUAACGGCGGUGGGUGGGUUGUUGUGGGAGGGGGAGGGGGAGUUAUGCGUGCUACCGUGAA
Regarding B2, the Kd was 11.6 nM.
